Broadly, the Kd is the equilibrium constant for the complex coming apart.

These results are taken from article PMC9507364, “Tuning the Size of Large Dense‐Core Vesicles and Quantal Neurotransmitter Release via Secretogranin II Liquid–Liquid Phase Separation” (Advanced Science, 2022).

The chains are these.
B1: Secretogranin III (SgIII) (natural protein)
chain: not shown
notes: source: HEK293S cells, BacMam baculovirus; purified
B2: secretogranin II (SgII), His-mCherry tag removed (natural protein, mouse, UniProt Q03517 31-617, looked up)
chain: QRNQLLQKEPDLRLENVQKFPSPEMIRALEYIEKLRQQAHREESSPDYNPYQGVSVPLQLKENGEESHLAESSRDALSEDEWMRIILEALRQAENEPPSAPKENKPYALNLEKNFPVDTPDDYETQQWPERKLKHMRFPLMYEENSRENPFKRTNEIVEEQYTPQSLATLESVFQELGKLTGPSNQKRERVDEEQKLYTDDEDDVYKTNNIAYEDVVGGEDWSPIEEKIETQTQEEVRDSKENTEKNEQINEEMKRSGQLGLPDEENRRESKDQLSEDASKVITYLRRLVNAVGSGRSQSGPNGDRAARLLQKPLDSQSIYQLIEISRNLQIPPEDLIEMLKAGEKPNGLVEPEQDLELAVDLDDIPEADLDRPDMFQSKMLSKGGYPKAPGRGMVEALPDGLSVEDILNVLGMENVVNQKSPYFPNQYSQDKALMRLPYGPGKSRANQIPKVAWIPDVESRQAPYENLNDQELGEYLARMLVKYPELLNTNQLKRVPSPVSSEDDLQEEEQLEQAIKEHLGPGSSQEMERLAKVSKRIPVGSLKNEDTPNRQYLDEDMLLKVLEYLNQEQAEQGREHLAKRAMENM
notes: signal peptide in the construct; residues 1-617 (total of 617 amino acids; 1-30 is the signal peptide); Non-tagged proteins were made by cutting off His-mCherry with PreScission protease; The SPR methods say only 'Purified SgII', without the state of the tag; also called CgC; SgII_(1–617); source: HEK293S cells, BacMam baculovirus; purified (Ni-NTA, PreScission protease, Superose 6 Increase); not …
B3: mCherry-tagged SgII (SgII-mCherry) (natural protein, mouse, UniProt Q03517 31-617, looked up)
chain: B2 chain
notes: signal peptide in the construct; residues 1-617 (total of 617 amino acids; 1-30 is the signal peptide); also called SgII_(1–617) tagged with mCherry; source: HEK293S cells, BacMam baculovirus; purified (Ni-NTA, Superose 6 Increase); not shown: mCherry, C-terminal, kept

Series [1] concerns the target B2. As to the kind of experiment: SPR; Biacore T200, 25 °C; purified SgII immobilised on a CM5 chip by amine coupling; SgIII injected as analyte, 2 to 1000 nM in twofold dilutions; 25 mM Tris pH 7.5, 150 mM NaCl, 0.05% P20; dissociation constant calculated in affinity mode. The note with it: both partners purified.
Series [2] deals with the molecule itself. As to the kind of experiment: SEC; Superose 6 Increase 10/300 GL; 25 mM Tris pH 7.5, 500 mM NaCl; self-association. A general note: SEC sorts molecules by how far they enter the pores of the column.

Turning to B1, the Kd in series [1] is 21.4 nM. On to B2, for which, in series [2], the binding result was “binds”. As to B3, in series [2], the binding result is “binds”.
